Measured values as given in the supplement of paper PMC10567573.

B1: FBXO34 (parent)
chain: ASSVESTLPVLEASSWKKQVSHDF

Variants of: B1
Assay: protein stability index of a GFP-peptide fusion (GPS, HEK-293T) (PSI 1-6); higher = more stable
Conditions: c terminus: a fixed tail appended
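Note: lentivirally expressed fusions sorted by FACS into six bins by GFP to DsRed ratio, PSI derived from sequencing read proportions per bin multiplied by bin number.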

| Variant | protein stability index |
| --- | --- |
| ASSVESTLPVLEASSWKKYVSHDF | 2.01 |
| ASSVESTLPVLEASSWKKCVSHDF | 2.92 |
| ASSVESTLPVLEASSWKKFVSHDF | 2.82 |
| ASSVESTLPVLEASSWKKPVSHDF | 4.53 |
| ASSVESTLPVLEASSWKKAVSHDF | 2.61 |
| ASSVESTLPVLEASSWKKHVSHDF | 4.77 |
| ASSVESTLPVLEASSWKKIVSHDF | 2.45 |
| ASSVESTLPVLEASSWKKMVSHDF | 2.27 |
| ASSVESTLPVLEASSWKKEVSHDF | 4.58 |
| ASSVESTLPVLEASSWKKLVSHDF | 2.57 |
| ASSVESTLPVLEASSWKKKVSHDF | 1.89 |
| ASSVESTLPVLEASSWKKTVSHDF | 3.3 |
| ASSVESTLPVLEASSWKKRVSHDF | 1.95 |
| ASSVESTLPVLEASSWKKNVSHDF | 3.97 |
| ASSVESTLPVLEASSWKKWVSHDF | 2.59 |
| ASSVESTLPVLEASSWKKSVSHDF | 4.08 |
| ASSVESTLPVLEASSWKKDVSHDF | 4.28 |
| ASSVESTLPVLEASSWKKGVSHDF | 4.14 |
| ASSVESTLPVLETSSWKKQVSHDF | 2.18 |
| ASSVESTLPVLEVSSWKKQVSHDF | 3 |
| ASSVESTLPVLENSSWKKQVSHDF | 3.21 |
| ASSVESTLPVLEDSSWKKQVSHDF | 3.19 |
| ASSVESTLPVLEFSSWKKQVSHDF | 2.38 |
| ASSVESTLPVLELSSWKKQVSHDF | 2.61 |

| Variant | protein stability index |
| --- | --- |
| ASSVESTLPVLEISSWKKQVSHDF | 2.49 |
| ASSVESTLPVLEPSSWKKQVSHDF | 3.66 |
| ASSVESTLPVLEKSSWKKQVSHDF | 2.27 |
| ASSVESTLPVLEHSSWKKQVSHDF | 2.37 |
| ASSVESTLPVLEQSSWKKQVSHDF | 2.37 |
| ASSVESTLPVLEMSSWKKQVSHDF | 2.85 |
| ASSVESTLPVLECSSWKKQVSHDF | 2.36 |
| ASSVESTLPVLESSSWKKQVSHDF | 3.36 |
| ASSVESTLPVLERSSWKKQVSHDF | 1.59 |
| ASSVESTLPVLEAYSWKKQVSHDF | 2.3 |
| ASSVESTLPVLEATSWKKQVSHDF | 2.33 |
| ASSVESTLPVLEAHSWKKQVSHDF | 2.4 |
| ASSVESTLPVLEAFSWKKQVSHDF | 2.49 |
| ASSVESTLPVLEAPSWKKQVSHDF | 3.07 |
| ASSVESTLPVLEANSWKKQVSHDF | 3.02 |
| ASSVESTLPVLEARSWKKQVSHDF | 2.39 |
| ASSVESTLPVLEALSWKKQVSHDF | 2.14 |
| ASSVESTLPVLEADSWKKQVSHDF | 1.67 |
| ASSVESTLPVLEAQSWKKQVSHDF | 2.4 |
| ASSVESTLPVLEAWSWKKQVSHDF | 1.12 |
| ASSVESTLPVLEAISWKKQVSHDF | 3.74 |
| ASSVESTLPVLEAGSWKKQVSHDF | 2.8 |
| ASSVESTLPVLEAESWKKQVSHDF | 2.75 |
| ASSVESTLPVLEAVSWKKQVSHDF | 2.35 |

| Variant | protein stability index |
| --- | --- |
| ASSVESTLPVLEAMSWKKQVSHDF | 1.53 |
| ASSVESTLPVLEACSWKKQVSHDF | 2.95 |
| ASSVESTLPVLEASVWKKQVSHDF | 2.84 |
| ASSVESTLPVLEASYWKKQVSHDF | 2.99 |
| ASSVESTLPVLEASPWKKQVSHDF | 3.61 |
| ASSVESTLPVLEASMWKKQVSHDF | 3.5 |
| ASSVESTLPVLEASHWKKQVSHDF | 3.24 |
| ASSVESTLPVLEASGWKKQVSHDF | 3.65 |
| ASSVESTLPVLEASQWKKQVSHDF | 3.44 |
| ASSVESTLPVLEASNWKKQVSHDF | 2.88 |
| ASSVESTLPVLEASDWKKQVSHDF | 4.01 |
| ASSVESTLPVLEASIWKKQVSHDF | 4.11 |
| ASSVESTLPVLEASWWKKQVSHDF | 2.38 |
| ASSVESTLPVLEASRWKKQVSHDF | 3.81 |
| ASSVESTLPVLEASAWKKQVSHDF | 3.05 |
| ASSVESTLPVLEASTWKKQVSHDF | 3.07 |
| ASSVESTLPVLEASKWKKQVSHDF | 3.92 |
| ASSVESTLPVLEASLWKKQVSHDF | 3.4 |
| ASSVESTLPVLEASFWKKQVSHDF | 2.75 |
| ASSVESTLPVLEASSWKTQVSHDF | 2.95 |
| ASSVESTLPVLEASSWKSQVSHDF | 3.72 |
| ASSVESTLPVLEASSWKFQVSHDF | 1.8 |
| ASSVESTLPVLEASSWKPQVSHDF | 2.99 |
| ASSVESTLPVLEASSWKLQVSHDF | 2.83 |

| Variant | protein stability index |
| --- | --- |
| ASSVESTLPVLEASSWKQQVSHDF | 2.69 |
| ASSVESTLPVLEASSWKAQVSHDF | 2.21 |
| ASSVESTLPVLEASSWKIQVSHDF | 2.37 |
| ASSVESTLPVLEASSWKEQVSHDF | 1.38 |
| ASSVESTLPVLEASSWKGQVSHDF | 3.49 |
| ASSVESTLPVLEASSWKYQVSHDF | 2.44 |
| ASSVESTLPVLEASSWKMQVSHDF | 1.5 |
| ASSVESTLPVLEASSWKRQVSHDF | 3.15 |
| ASSVESTLPVLEASSWKHQVSHDF | 2.39 |
| ASSVESTLPVLEASSWKVQVSHDF | 2.53 |
| ASSVESTLPVLEASSWKCQVSHDF | 2.11 |
| ASSVESTLPVLEASSWKWQVSHDF | 2.58 |
| ASSVESTLPVLEASSWKNQVSHDF | 2.94 |
| ASSVESTLPVLEASSWKDQVSHDF | 1.88 |
| ASSVESTLPVLEASSWKKQVAHDF | 3.31 |
| ASSVESTLPVLEASSWKKQVRHDF | 3.79 |
| ASSVESTLPVLEASSWKKQVFHDF | 2.89 |
| ASSVESTLPVLEASSWKKQVQHDF | 3.08 |
| ASSVESTLPVLEASSWKKQVHHDF | 3.58 |
| ASSVESTLPVLEASSWKKQVTHDF | 3.61 |
| ASSVESTLPVLEASSWKKQVEHDF | 2.76 |
| ASSVESTLPVLEASSWKKQVLHDF | 2.44 |
| ASSVESTLPVLEASSWKKQVCHDF | 2.72 |
| ASSVESTLPVLEASSWKKQVPHDF | 3.87 |

| Variant | protein stability index |
| --- | --- |
| ASSVESTLPVLEASSWKKQVVHDF | 3.65 |
| ASSVESTLPVLEASSWKKQVYHDF | 2.97 |
| ASSVESTLPVLEASSWKKQVDHDF | 4.89 |
| ASSVESTLPVLEASSWKKQVNHDF | 3.64 |
| ASSVESTLPVLEASSWKKQVWHDF | 2.3 |
| ASSVESTLPVLEASSWKKQVIHDF | 2.64 |
| ASSVESTLPVLEASSWKKQVMHDF | 3 |
| ASSVESTLPVLEASSWKKQVGHDF | 2.79 |
| ASSVESTLPVLEASSWKKQVKHDF | 3.26 |
| ASSVESTLPVLEASSTKKQVSHDF | 4.81 |
| ASSVESTLPVLEASSFKKQVSHDF | 3.67 |
| ASSVESTLPVLEASSNKKQVSHDF | 4.99 |
| ASSVESTLPVLEASSQKKQVSHDF | 4.71 |
| ASSVESTLPVLEASSDKKQVSHDF | 5.44 |
| ASSVESTLPVLEASSKKKQVSHDF | 4.18 |
| ASSVESTLPVLEASSVKKQVSHDF | 4.99 |
| ASSVESTLPVLEASSEKKQVSHDF | 5.07 |
| ASSVESTLPVLEASSLKKQVSHDF | 3.94 |
| ASSVESTLPVLEASSGKKQVSHDF | 4.66 |
| ASSVESTLPVLEASSYKKQVSHDF | 3.75 |
| ASSVESTLPVLEASSCKKQVSHDF | 4.2 |
| ASSVESTLPVLEASSAKKQVSHDF | 4.01 |
| ASSVESTLPVLEASSMKKQVSHDF | 5.15 |
| ASSVESTLPVLEASSRKKQVSHDF | 4.69 |

| Variant | protein stability index |
| --- | --- |
| ASSVESTLPVLEASSHKKQVSHDF | 4.31 |
| ASSVESTLPVLEASSPKKQVSHDF | 4.61 |
| ASSVESTLPVLEASSSKKQVSHDF | 4.2 |
| ASSVESTLPVLEASSIKKQVSHDF | 3.71 |
| ASSVESTLPVLEASSWKKQMSHDF | 4.34 |
| ASSVESTLPVLEASSWKKQLSHDF | 3.55 |
| ASSVESTLPVLEASSWKKQESHDF | 4.85 |
| ASSVESTLPVLEASSWKKQFSHDF | 3.72 |
| ASSVESTLPVLEASSWKKQNSHDF | 4.13 |
| ASSVESTLPVLEASSWKKQTSHDF | 4.29 |
| ASSVESTLPVLEASSWKKQASHDF | 3.91 |
| ASSVESTLPVLEASSWKKQQSHDF | 4.01 |
| ASSVESTLPVLEASSWKKQKSHDF | 4.3 |
| ASSVESTLPVLEASSWKKQDSHDF | 4.84 |
| ASSVESTLPVLEASSWKKQGSHDF | 4.09 |
| ASSVESTLPVLEASSWKKQHSHDF | 4.6 |
| ASSVESTLPVLEASSWKKQWSHDF | 2.47 |
| ASSVESTLPVLEASSWKKQISHDF | 3.69 |
| ASSVESTLPVLEASSWKKQPSHDF | 4.04 |
| ASSVESTLPVLEASSWKKQRSHDF | 4.22 |
| ASSVESTLPVLEASSWKKQCSHDF | 3.44 |
| ASSVESTLPVLEASSWKKQYSHDF | 3.5 |
| ASSVESTLPVLEASSWKKQVSSDF | 2.79 |
| ASSVESTLPVLEASSWKKQVSWDF | 2.18 |

| Variant | protein stability index |
| --- | --- |
| ASSVESTLPVLEASSWKKQVSFDF | 2.73 |
| ASSVESTLPVLEASSWKKQVSIDF | 2.84 |
| ASSVESTLPVLEASSWKKQVSNDF | 2.54 |
| ASSVESTLPVLEASSWKKQVSEDF | 2.69 |
| ASSVESTLPVLEASSWKKQVSQDF | 2.58 |
| ASSVESTLPVLEASSWKKQVSMDF | 2.23 |
| ASSVESTLPVLEASSWKKQVSPDF | 4.1 |
| ASSVESTLPVLEASSWKKQVSCDF | 2.94 |
| ASSVESTLPVLEASSWKKQVSRDF | 2.09 |
| ASSVESTLPVLEASSWKKQVSYDF | 3.01 |
| ASSVESTLPVLEASSWKKQVSGDF | 4.47 |
| ASSVESTLPVLEASSWKKQVSLDF | 3.36 |
| ASSVESTLPVLEASSWKKQVSVDF | 2.83 |
| ASSVESTLPVLEASSWKKQVSKDF | 3.31 |
| ASSVESTLPVLEASSWKKQVSDDF | 3.65 |
| ASSVESTLPVLEASSWKKQVSTDF | 3.19 |
| ASSVESTLPVLLASSWKKQVSHDF | 2.24 |
| ASSVESTLPVLHASSWKKQVSHDF | 2.82 |
| ASSVESTLPVLPASSWKKQVSHDF | 3.46 |
| ASSVESTLPVLIASSWKKQVSHDF | 2.12 |
| ASSVESTLPVLTASSWKKQVSHDF | 2.86 |
| ASSVESTLPVLVASSWKKQVSHDF | 2.73 |
| ASSVESTLPVLKASSWKKQVSHDF | 2.36 |
| ASSVESTLPVLFASSWKKQVSHDF | 2.25 |

| Variant | protein stability index |
| --- | --- |
| ASSVESTLPVLSASSWKKQVSHDF | 2.32 |
| ASSVESTLPVLGASSWKKQVSHDF | 2.49 |
| ASSVESTLPVLYASSWKKQVSHDF | 2.22 |
| ASSVESTLPVLNASSWKKQVSHDF | 3.1 |
| ASSVESTLPVLEASSWHKQVSHDF | 3.17 |
| ASSVESTLPVLEASSWAKQVSHDF | 1.83 |
| ASSVESTLPVLEASSWCKQVSHDF | 3.17 |
| ASSVESTLPVLEASSWSKQVSHDF | 2.38 |
| ASSVESTLPVLEASSWDKQVSHDF | 4.16 |
| ASSVESTLPVLEASSWYKQVSHDF | 2.38 |
| ASSVESTLPVLEASSWTKQVSHDF | 1.61 |
| ASSVESTLPVLEASSWFKQVSHDF | 2.85 |
| ASSVESTLPVLEASSWIKQVSHDF | 1.59 |
| ASSVESTLPVLEASSWMKQVSHDF | 2.58 |
| ASSVESTLPVLEASSWWKQVSHDF | 2.02 |
| ASSVESTLPVLEASSWGKQVSHDF | 2.98 |
| ASSVESTLPVLEASSWPKQVSHDF | 3.95 |
| ASSVESTLPVLEASSWLKQVSHDF | 2.85 |
| ASSVESTLPVLEASSWNKQVSHDF | 3.75 |
| ASSVESTLPVLEASSWQKQVSHDF | 1.52 |
